Data as given in US20200223933A1 (APTEVO RESERCH AND DEVELOPMENT, published 2020).

Experiments:
[1] = target: some of the FcγR expressing cell lines; assay: flow cytometry on CHO cells stably expressing FcγR, anti-human IgG secondary (FIG. 30B)
human CD137 on cells [2] = target: T1, human CD137 on cells (human, UniProt Q07011 24-255); assay: cell-based or functional assay
human CD137 on cells [3] = target: T1, human CD137 on cells; assay: cell-based or functional assay; remark: listed apart in the source
[4] = target: T2, cynomolgus CD137 on cells (cynomolgus macaque, UniProt A9YYE7 24-254); assay: flow cytometry, CD8 T cells gated from CD3-stimulated cynomolgus PBMC, exp 2, n=3 donors
T2 construct: whole, on cells; also called cynomolgus macaque CD137; cynomolgus 4-1BB
T2 sequence (A9YYE7 entry or part of it): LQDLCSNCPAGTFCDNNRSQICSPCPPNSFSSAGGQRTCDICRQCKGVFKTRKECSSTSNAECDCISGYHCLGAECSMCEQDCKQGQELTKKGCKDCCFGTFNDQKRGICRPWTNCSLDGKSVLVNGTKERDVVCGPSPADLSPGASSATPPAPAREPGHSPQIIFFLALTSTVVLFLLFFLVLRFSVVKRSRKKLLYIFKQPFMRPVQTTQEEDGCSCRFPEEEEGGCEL
Description: (§1) Isolation and stimulation of cynomolgus PBMC: Cynomolgus PBMC were isolated from 20 mL of cynomolgus monkey blood from 3 different donors, obtained from Silabe, France by density gradient centrifugation using Lympholyte-mammal (Cedarlane labs) according to manufacturer's instructions. Non-tissue treated 96 well plates were pre-coated overnight at 4° C. with 3 μg/mL α-monkey CD3, clone FN-18 (Invitrogen #APS0301). The cynomolgus PBMC were then stimulated identically as the human PBMC described above
(§2) FACS staining and analysis of CD8 T cells: Following 48 h of incubation with or without CD3, human and cynomolgus PBMC were harvested, pooled, recounted and diluted in FACS buffer (PBS +0.5% BSA, 0.05% NaN₃) to a concentration of 5×10⁶ cells/mL. 50 μL (0.25×10⁶ cells) of cell solution was added to a 96-well FACS staining plate (Falcon #351190). […] Cells were analysed for ALG.APV-210 binding using flow cytometry by gating on viable, single cells expressing CD3 and CD8. MFI values (FMO subtracted) from 2 independent experiments as well as normalized pooled data from 2 experiments and EC₅₀-values were determined and plotted using GraphPad Prism 7, non-linear regression log (agonist) vs. normalized response—variable slope, n=6 donors/group.

[5] = target: T2, cynomolgus CD137 on cells; assay: flow cytometry, CD8 T cells gated from CD3-stimulated cynomolgus PBMC, exp 1, n=3 donors
Description: as §1, §2

human CD137 on cells [6] = target: T1, human CD137 on cells; assay: flow cytometry, % positive cells of CD8 T cells gated from CD3-stimulated human PBMC, exp 1, n=3 donors
Description: as §2, with “#351190). Following 10 min of Fc-blocking in RT using Beriglobin (hIgG, 200 μg/mL), cells were washed in FACS buffer and then incubated for 1 h in 4° C. with 100 μL of the biotinylated ALG.APV-210 or negative control. The antibodies were added in a serial dilution starting either at 5 μg/mL titrating down in a 12 step 1/3 dilution down to 0.0003 μg/mL (exp 1) or 1 μg/mL titrating down in a 12 step 1/2 dilution down to 0.0005 μg/mL (exp 2).” for “#351190).”

human CD137 on cells [7] = target: T1, human CD137 on cells; assay: flow cytometry, CD8 T cells gated from CD3-stimulated human PBMC, exp 2, n=3 donors
Description: as §2, with “#351190). Following 10 min of Fc-blocking in RT using Beriglobin (hIgG, 200 μg/mL), cells were washed in FACS buffer and then incubated for 1 h in 4° C. with 100 μL of the biotinylated ALG.APV-210 or negative control. The antibodies were added in a serial dilution starting either at 5 μg/mL titrating down in a 12 step 1/3 dilution down to 0.0003 μg/mL (exp 1) or 1 μg/mL titrating down in a 12 step 1/2 dilution down to 0.0005 μg/mL (exp 2).” for “#351190).”

[8] = target: T2, cynomolgus CD137 on cells; assay: flow cytometry, % positive cells of CD8 T cells gated from CD3-stimulated cynomolgus PBMC, exp 1, n=3 donors
Description: as §1, §2

human CD137 on cells [9] = target: T1, human CD137 on cells; assay: flow cytometry, normalized % positive cells of CD8 T cells from CD3-stimulated human PBMC, pooled data of 2 exp, n=6 donors
Description: as §2, with “#351190). Following 10 min of Fc-blocking in RT using Beriglobin (hIgG, 200 μg/mL), cells were washed in FACS buffer and then incubated for 1 h in 4° C. with 100 μL of the biotinylated ALG.APV-210 or negative control. The antibodies were added in a serial dilution starting either at 5 μg/mL titrating down in a 12 step 1/3 dilution down to 0.0003 μg/mL (exp 1) or 1 μg/mL titrating down in a 12 step 1/2 dilution down to 0.0005 μg/mL (exp 2).” for “#351190).”

human CD137 on cells [10] = target: T1, human CD137 on cells; assay: flow cytometry, CD8 T cells gated from CD3-stimulated human PBMC, exp 1, n=3 donors
Description: as §2, with “#351190). Following 10 min of Fc-blocking in RT using Beriglobin (hIgG, 200 μg/mL), cells were washed in FACS buffer and then incubated for 1 h in 4° C. with 100 μL of the biotinylated ALG.APV-210 or negative control. The antibodies were added in a serial dilution starting either at 5 μg/mL titrating down in a 12 step 1/3 dilution down to 0.0003 μg/mL (exp 1) or 1 μg/mL titrating down in a 12 step 1/2 dilution down to 0.0005 μg/mL (exp 2).” for “#351190).”

T1 sequence (Q07011 24-255 limits assumed): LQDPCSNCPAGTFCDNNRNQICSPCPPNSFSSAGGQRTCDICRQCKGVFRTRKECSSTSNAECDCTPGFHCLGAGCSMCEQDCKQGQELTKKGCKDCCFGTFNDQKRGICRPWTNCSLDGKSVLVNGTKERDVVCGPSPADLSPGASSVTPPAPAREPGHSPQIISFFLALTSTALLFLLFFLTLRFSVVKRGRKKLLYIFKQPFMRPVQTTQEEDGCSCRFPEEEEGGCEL

control human IgG1 molecule (antibody) gave a concentration at which significant binding was observed [1] of 4 nM.

B1: ALG.APV-210 (bispecific antibody)
chain: EVQLLESGGGLVQPGGSLRLSCAASGFTFSHGSMYWVRQAPGKGLEWVSSISSGSGSTYYADSVKGRFTISHDNSKNTLYLQMNSLRAEDTAVYYCARSSYYGSYYSIDYWGQGTLVTVSSGGGGSGGGGSGGGGSGGGGSDIQMTQSPSSLSASVGDRVTITCRASQSISSYLNWYQQKPGKAPKLLIYAASSLQSGVPSRFSGSGSGTDFTLTISSLQPEDFATYYCQQYYDNLPTFGQGTKLEIKEPKSSDKTHTCPPCPAPEAAGAPSVFLFPPKPKDTLMISRTPEVTCVVVDVSHEDPEVKFNWYVDGVEVHNAKTKPREEQYNSTYRVVSVLTVLHQDWLNGKEYKCAVSNKALPAPIEKTISKAKGQPREPQVYTLPPSRDELTKNQVSLTCLVKGFYPSDIAVEWESNGQPENNYKTTPPVLDSDGSFFLYSKLTVDKSRWQQGNVFSCSVMHEALHNHYTQKSLSLSPGSGGGGSGGGGSGGGGSPSEVQLLESGGGLVQPGGSLRLSCAASGFTFSSYAMSWVRQAPGKCLEWVSAISGSGGSTYYADSVKGRFTISRDNSKNTLYLQMNSLRAEDTAVYYCARYYGGYYSAWMDYWGQGTLVTVSSGGGGSGGGGSGGGGSGGGGSDIQMTQSPSSLSASVGDRVTITCRASQSISSFLNWYQQKPGKAPKLLIYAASSLQSGVPSRFSGSGSGTDFTLTISSLQPEDSATYYCQQTYGYLHTFGCGTKLEIKR
In the case of B1, the “EC50 (nM), IFNγ release of human CD8 T cells with CT26-h5T4^high cells” value (human CD137 on cells [2]) is reported as 0.41 nM, the “EC50 (nM), IFNγ release of human CD8 T cells with CT26-h5T4^low cells” value (human CD137 on cells [2]) is reported as 0.24 nM and the “maximal IFNγ release with CT26-h5T4^low cells relative to CT26-h5T4^high cells” value (human CD137 on cells [3]) is reported as 82%. For the same molecule, the “maximal IFNγ release with CT26-wt cells relative to CT26-h5T4^high cells” value (human CD137 on cells [3]) was 7%.

B2: biotinylated ALG.APV-210 (bispecific antibody)
chain: B1 chain
modifications: biotinylated (sites not given)
notes: also called ALG.APV-210 (biotinylated for FACS detection)
B2 was tested, and the “EC50 (read off the curve)” value [4] was roughly 0.2 nM, the “EC50 (read off the curve)” value [5] was roughly 0.3 nM and the “EC50 (read off the curve)” value (human CD137 on cells [6]) was roughly 0.03 nM. For the same molecule, the “EC50 (read off the curve)” value (human CD137 on cells [7]) was roughly 0.2 nM, the “EC50 (read off the curve)” value [8] was roughly 0.02 nM and the EC50 (human CD137 on cells [9]) was 0.027 nM. The “EC50 (read off the curve)” value (human CD137 on cells [10]) was roughly 0.3 nM.
